Laboratory results reported in publication PMC6908968 (Cell, 2019).

Columns and labels:
[1] = biological target: EBOV GP ectodomain residues 1-636 (GPec) (Zaire ebolavirus, strain  …, UniProt Q05320)
[2] = biological target: T1, thermolysin-cleaved EBOV GP on Jurkat-GP cells (cleaved GP) (Zaire ebolavirus, Makona (GP1 core …, strain))
T1 chain 1: not shown
T1 chain 2: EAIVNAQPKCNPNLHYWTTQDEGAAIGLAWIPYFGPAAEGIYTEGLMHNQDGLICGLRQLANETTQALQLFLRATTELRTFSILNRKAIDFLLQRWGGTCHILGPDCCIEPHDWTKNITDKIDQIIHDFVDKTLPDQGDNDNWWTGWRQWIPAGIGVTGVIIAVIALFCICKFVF

| Binder | binding result [1] | binding result [2] |
| --- | --- | --- |
| 5.6.c2481 (antibody, V domains shown) VH: QLQLQESGPGLVKPSETLSLTCTVSGGSISSSTYYWGWIRQPPGKGLEWIGSIFYRGITYYNPSLKSRVTISVDTSKNQFSLKLSSVTAADTAVYYCARGGVIVLMVYAIVPPDVWGQGTTVTVSS VL: QSALTQPASVSGSPGQSITISCTGSRSDVGGYNYVSWYQQHPGKAPKLMISDVSNRPSGVSNRFSGSKSGNTASLTISGLQAEDEADYYCSSYTSSSTVVFGGGTKLTVL | binds | binds |
| 5.6.c2517 (antibody, V domains shown) VH: QVQLQQWGAGLLKPSETLSLSCSVYPGSFSGYYWAWIRQPPGKGLEWIGEINHSGSTKYNPSLKSRVTISIDTSKNQLSLKMSSVTAADSAVYYCASLTRSSWFRAFDYWGQGTLVTVSS VL: QSALTQPASVSGSPGQSITISCTGSSSDIGGYDYVSWYQQHPGKAPKLMIFDVSDRPSGVSNRFSGSKSGNTASLTISGLQPEDEADYYCSSYTSISSSYVFGTGTKVTVL | binds | binds |
| 15.0.c775 (antibody, V domains shown) VH: EEQLLESGGGLVQPGGSLRLSCAASGFTFSGYDMSWVRQAPGKGLEWVSLLSWSGDAKYYADSVKGRFTISRDNSKNTLYLQMNSLRAEDTAVYYCAGDSSGYNNERLYYTYYMDVWGKGTTVTVSS VL: DIQMTQSPSSVSASVGDRVTITCRANQAISSWLAWYQQKPGKAPKLLISAASSLQSGVPPRFSGSGSGTDFTLTISSLQPEDFATYYCQQANSFPLTFGGGTKVEIK | binds | binds |
| 5.6.c2569 (antibody, V domains shown) VH: QVQLQESGPGLVKPSGTLSLTCAVSGGSISSPNWWSWVRQSPEKGLEWIGEVFHSGSTNYNPSLKSRATISVDNSKNQFSLRLTSVTAADTAIYYCARDLGWLVHGYFDPWGQGILVTVSS VL: EIVLTQSPGTLSLSPGERATLSCRAGQSVSSSYVAWYQQKPGQAPRLLIYDTSSRATGIPDRFSGSGSGTDFTLTISRLEPEDFAVYYCQQYGTSRTWTFGQGTRVEIK | binds | binds |
| 5.6.c2682 (antibody, V domains shown) VH: QVQLVESGGGVVQPGRSLRLSCAASGFTFSNYAMHWVRQAPGKGLEWVAVTSDDKDNRYYADSVKGRFIISRDNSKNTLYLQMNSLRAEDTAVYHCAKDFEVFSSIFNGAYDSWGQGTLVIVSS VL: EVVMTQSPATLSVSPGERATLSCRASQSVGFNLAWYQQKPGQAPRLLIYDASTRATGIPARFSGSGSGTEFTLTISSLQSGDFAVYYCQQYNNWPPYTFGQGTKLEIK | binds | binds |
| 5.6.c2485 (antibody, V domains shown) VH: QVTLKESGPVLVKPTETLTLTCTVSGFSLSTARMGVGWIRQPPGKALEWLAHIFSDDEKSYSTSLKSRLTISKDTSKSQVVLTMTNMDPVDTATYYCARIQSSEWIYYYYGMDVWGQGTTVTVSS VL: DIQMTQSPSSVSASIGDTVTITCRASQDLSYWLAWYQQKPGKAPKLLIYAASSLQSGVPSRFSGSGSGTDFTLTISSLQPEDFATYYCQQAHSFPITFGQGTRLEIK | binds | binds |
| 5.6.c3955 (antibody, V domains shown) VH: EVQLVESGGGLVQPGGSLRLSCAASGFTFSTYSMNWLRQAPGKGLEWISFISIRSTTTYYADSVKGRFTISRDDAKNSLYLQMNSLRDEDTAVYYCARVYMRTFYFDNWGQGTLVTVSS VL: QSALTQPASVSGSPGQSITISCTGTSSDVGDYNYVSWYQQHPGKAPKLLIFDVSNRPSGVSNRFSGSKSGNTASLTISGLQAEDEADYYCSSYASSRTSWVFGGGTKLTVL | binds |  |
| 5.6.c2518 (antibody, V domains shown) VH: EVQLVESGGGVVQPGGSLKLSCAASGFTFDDHAMHWVRQAPGKGPEWVSLISWDGANSYYANSVRGRFTVSRDNSKNSLFLQMNSLRTEDTALYYCARDLHNYAFWSGYPDYWGRGTLVTVSS VL: DIQLTQFPSSLSASVGDRVVITCRASQSISSSLNWYQQKPGNAPQLLIYTVSSLYTGVPSRFSGSASGTDFTLTISSLRPEDFATYYCQQTHSVPYTFGQGTKLEIK | binds | binds |
| 15.0.c888 (antibody, V domains shown) VH: QVQLVESGGGVVQPGRSLRLSCAASGFTFSSYGMHWVRQAPGKGLEWVAVISYDGSNEYHADSVKGRFTISRDNSKNTLYLQMNSLRPEDTAVYYCAKGARSSSSLDLYYYYYYMDVWGKGTTVTVSS VL: not shown | binds | binds |
| 5.6.c2526 (antibody, V domains shown) VH: QVQLVESGGGVVQPGGSLRLACAASGFTFSNSGLHWIRQAPGKGLEWMTVISHDGNNKYYADSVKGRFTISRDNSENMLYLQMNSLRPEDTAVYYCARDRIRYSDWGVYYYYNGMDVWGQGTTVTVSS VL: QSVLTQPPSVSAAPGQKVTISCSGSISNIGNHYVSWYKQLPGTAPKVLIYDNNKRPSGIPDRFSGSKSGTSATLGLTGLQTGDEADYFCGTWDSSLSVWVFGGGTKLTVL | binds | binds |
| 5.6.c2609 (antibody, V domains shown) VH: QVQLVESGGGVVQPGRSLRLSCAASGIAFSNYAMHWVRQAPGKGLEWVALISSDARDQYYADSVKGRFTISRDNSKSTLYLEMNSLTSEDTAIYYCASDTSSHYSSLLYNWFDSWGQGSLVTVSS VL: DIQMTQSPSSLSASVGDRVTITCRAIQSISTFLNWYQHKPGKAPKVLIYGASNLQSGVPSRFSGSGSGTDFTLTISSLQPEDFATYYCQQSYNTPFTFGPGTKVDIK | binds | binds |
| 5.6.c2627 (antibody, V domains shown) VH: QVQLVQSGAEVKKPGSSVKVSCKASGGTFSTYGFIWVRQAPGQGLDWMGGIIPIFDKTNYGQRFQGRVTITADKSTSTVHMELSSLRSEDTAVYYCARCRSGFKDPSGYFYYAMDVWGQGTTVTVSS VL: not shown | binds | binds |
| 5.6.c2633 (antibody, V domains shown) VH: EVQLVQSGGGLVQPGGSLTLSCAASGFTFTDHWIHWVRQAPGKGLEWVANVKPDGSEKYYVDSVKGRFTISRDNAKKSLSLQMNSLRADDTAVYYCARSQLEGLGDLFYYNFGLDVWGQGTTVTVSS VL: EIVMTQSPATLSVSPGERATLSCRASQSVNSNLAWYQQKPGQAPRLLIYGASTRATGIPARFSGRGSGTDFTLTISSLQSEDFALYYCQQYNTWPPLTFGGGTKVEIN | binds | binds |
| 5.6.c2670 (antibody, V domains shown) VH: QVQLEQWGAGLLKPSETLSLTCGVNGGSFSGSYWIWIRQSPGKGLEWIGEISHSGSTNSNPSLKSRVTISVDTSKNHFSLTLSSVTAADTAVYYCATSTLDSSSVFYYSYGLDVWGQGTTVTVSS VL: DIQMTQSPSSVSASVGDRVTITCRASQDISSWLAWYQQKPGRAPNLLIYAASSLLSGVPSRFSGSGSGTDFTLTISSLQPGDSATYYCQQGHSLPLTFGGGTKVEIR | binds | binds |
| 5.6.c2455 (antibody, V domains shown) VH: QVQLVESGGGVVQPGRSLRLSCAASGFTFSSYAIHWVRQAPGKGLEWVAVISDDGNHKYYADSVKGRFTISRDNSKNTLFLQMNSLRPEDTAVYYCAKNRLVFGVIWFYDMDVWGQGTTVTVSS VL: QSVLTQPPSVSAAPGQKVTISCSGSSSNIGNNYVSWYQQLPGSAPKLLIYDNNKRPSGIPDRFSGSKSGTSATLDITGLQTGDEADYYCGTWDTSLRGVFGGGTKLTVL | binds | binds |
| 5.6.c2685 (antibody, V domains shown) VH: EVQLVESGGGLVQPGGSLRLSCAASGFTFSRSWMNWVRQAPGKGLEWVANIKQDGSEKYYVDSVKGRFTISRDNAKNSLYLQMNSLRAEDTGVYYCAKATVTTELTFFYYYALDVWGQGTTVTVSS VL: EIVMTQSPATLSVSPGERATLSCRASQSINNNLAWYQQKPGQAPRLLISDASTRATGVPARFSGSGSGTEFTLTISSLQSEDSAVYHCQQYNTWPPFTFGGGTKVEIK | binds | binds |
| 15.0.c770 (antibody, V domains shown) VH: QVHLVESGGGVVQPGRSLRLSCAVSGFTFSSCGMHWVRQAPGKGLEWVAVISYDGSDKYYADSVKGRFTISRDNSNNTLYLQMNSLSIEDTAVYYCAKDYYYGSGSDLYYYYYGMDVWGLGTTVTVSS VL: EIVLTQSPGTLSLSPGDRATLSCRASQSVSSTYLAWYQQKPGQAPRLLIYGASSRATGIPDRFSGSGSGTDFTLTISRLEPEDFAVYYCQQYVTSPYSFGQGTKLEIK | binds | binds |
| 5.6.c2644 (antibody, V domains shown) VH: QVQLVQSGAEVKKPGASVKVSCKASGYTFSNYGITWVRQAPGQGLEWMGWISAYNGNTKYAQKVQGRVTLSTDTSTSTAYMELRSLRSDDTAIYYCARDPGMITPGGVIEHWGQGTLVTVSS VL: DIQMTQSPSSLSASVGDRVTVTCRASQGISNYLAWYQQKPGKVPKLLIYAASTLHSGVPSRFSGSGSGTDFTLTISSLQPEDVATYVCHNYNNAPRTFGQGTKVEIK | binds | binds |
| 5.6.c2460 (antibody, V domains shown) VH: QLQLQESGPGLVKPSETLSLSCSVSGGSISSSDDHWGWIRQSPGKGLEWIGSVSYSGSVYYNPSLKSRVTISVDTSKTQFSLRLRSVTAADTAVYNCARHRSDQMLFYWFDPWGQGTLVTVSS VL: ETLMTQSPATLSVTPGESATLSCRASQTISSSLAWFQQKPGQAPRLLIHGASTRATGIPARFSGSGSGTEFTFTISSLQSEDFAVYFCQQYHNWPPTFGQGTKVEIK | binds | binds |
| 5.6.c2636 (antibody, V domains shown) VH: QVQLVQSGAEVKKPGASVKVSCKASGYTFTDYYMHWVRQAPGQGLEWLGIIIPTGTLSYAQKFQGRVTMTSDTSTNTFYMELRSLRSEDTAVYFCAREKSRDFDWELFDYWGQGTLVTVSS VL: QSVLTQPPSASGTPGQRITISCSGSSSNIGNNAVSWYQQIPGMAPKLLIYSSNQRPSGVPDRFSGSKSGTSASLAISGLQSEDETDYYCAAWDDSLNGPVFGGGTKVTVL | binds | binds |
